Laboratory results as given in patent publication US20160287696A1, “PAN POLLEN IMMUNOGENS AND METHODS AND USES FOR IMMUNE RESPONSE MODULATION” (LA JOLLA INSTITUTE FOR ALLERGY AND IMMUNOLOGY, priority 2013, published 2016).

B1: NTGA 4: Phl p wild type sequence, Table 2 (protein)
chain: YIKLMKTIFDFESIKKLLASPKFSFCFDGLHGVAGAYAKRMFVDELGASESSLLNCVPKEDFGGGHPDPNLTYAKELVERMGLGKSSSNVEPPEFGAAADGDADRNMVLGKRFFVTPSDSVAIIAANAVQSIPYFASGLKGVARSMPTSAALDVVAKNLNLKFFEVPTGWKFFGNLMDAGMCSVCGEESFGTGSDHIREKDGIWAVLAWLSIIAYKNKDNLGGDKLVSVEDIVLQHWATYGRHYYTRYDYENVDAEAAKELMANLVKMQSALSDVNKLIKEIQPDVAEVVSADEFEYKDPVDGSVSKHQGIRYLFGDGSRLVFRLSGTGSVGATIRIYIEQYEKDSSKTGRESSDALSPLVDVALKLSKIKEYTGRSAPTVIT
modifications: Phleum Pratense
B2: NTGA 30: Phl p wild type sequence, Table 2 (protein)
chain: MAGGGVEDVYGEDRATEEQFVTPWSFSVASGHSLLRDPRHNKGLAFSEAERDAHYLRGLLPPAIVSQEHQEKKIMHNLRQYTVPLQRYIAMMDLQERNERLFYKLLIDNVEELLPVVYTPVVGEACQKYGSIYRRPQGLYISLKDKGKVLEVLKNWPERSIQVIVVTDGERILGLGDLGCQGMGIPVGKLSLYTALGGVRPSACLPITIDVGTNNQTLLDDEYYIGLKQRRATGEEYHELLQEFMNAVKQNYGEKVLVQFEDFANHNAFDLLAKYSKSHLVFNDDIQGTASVVLAGLLAALKVIGGGLADQTYLFLGAGEAGTGIAELIALEMSKHTDLPLDDCRKKIWLVDSKGLLVESRKESLQHFKKPFAHEHEPLTTLLEAVQSLKPTVLIGTSGVGKTFTQEVVEAMASFNEKPVIFSLSNPTSHSECTAEEAYTWTKGTAVFASGSPFDPVEYEGKTYVPGQSNNAYVFPGFGLGVVISGAIRVHDDMLLAASEALAEQVSQENFDKGLIFPPFTNIRKISANIAAKVAAKAYDLGLASRLPRPDDLVKYAESCMYTPLYRSYR
modifications: Phleum Pratense
B3: NTGA 10: Phl p wild type sequence, Table 2 (protein)
chain: MVFSVTKKDTKPFDGQKPGTSGLRKKVTVFQQPHYLANFVQSTFNALPADQVKGATIVVSGDGRYFSKDAVQIITKMAAANGVRRVWVGQDSLLSTPAVSAIIRERIAADGSKATGAFILTASHNPGGPTEDFGIKYNMGNGGPAPESVTDKIFSNTTTITEYLIAEDLPDVDISALGVTTFTGPEGPFDVDVFDSATDYIKLMKTIFDFESIKKLLASPKFSFCFDGLHGVAGAYAKRMFVDELGASESSLLNCVPKEDFGGGHPDPNLTYAKELVERMGLGKSSSNVEPPEFGAAADGDADRNMVLGKRFFVTPSDSVAIIAANAVQSIPYFASGLKGVARSMPTSAALDVVAKNLNLKFFEVPTGWKFFGNLMDAGMCSVCGEESFGTGSDHIREKDGIWAVLAWLSIIAYKNKDNLGGDKLVSVEDIVLQHWATYGRHYYTRYDYENVDAEAAKELMANLVKMQSALSDVNKLIKEIQPDVAEVVSADEFEYKDPVDGSVSKHQGIRYLFGDGSRLVFRLSGTGSVGATIRIYIEQYEKDSSKTGRESSDALSPLVDVALKLSKIKEYTGRSAPTVIT
modifications: Phleum Pratense
B4: NTGA 11: Phl p wild type sequence, Table 2 (protein)
chain: MATSWTLPDHPTLPKGKTVAVIVLDGWGEASADQYNCIHRAETPVMDSLKNGAPEKWTLVKAHGTAVGLPSDDDMGNSEVGHNALGAGRIFAQGAKLVDAALASGKIWEAEGFNYIKESFAEGTLHLIGLLSDGGVHSRLDQVQLLVKGASERGAKRIRLHILTDGRDVLDGSSVGFVETLENDLAQLREKGVDAQVASGGGRMYVTMDRYENDWDVVKRGWDAQVLGEAPYKFKSALEAVKTLRAEPKANDQYLPAFVIVDESGKSVGPIVDGDAVVTFNFRADRMVMLAKALEFADFDKFDRVRVPKIKYAGMLQYDGELKLPNKFLVSPPLIERTSGEYLVKNGVRTFACSETVKFGHVTFFWNGNRSGYFDETKEEYIEIPSDSGITFNEQPKMKALEIAEKTRDAILSGKFDQVRINLPNGDMVGHTGDIEATVVACKAADEAVKIVLDAVEQVGGIYLVTADHGNAEDMVKRNKSGQPALDKSGSIQILTSHTLQPVPVAIGGPGLHPGVKFRSDINTPGLANVAATVMNLHGFQAPDDYETTLIEVAD
modifications: Phleum Pratense
B5: NTGA 9: Phl p wild type sequence, Table 2 (protein)
chain: MAQLQETYACSPATERGRGILLGGDAKTDTIVYCAGRTVFFRRLDAPLDAWTYTEHAYPTTVARISPNGEWVASADVSGCVRVWGRNGDRALKAEFRPISGRVDDLRWSPDGLRIVVSGDGKGKSLVRAFMWDSGSTVGDFDGHSKRVLSCDFKPTRPFRIVTCGEDFLANYYEGPPFKFKHSIRDHSNFVNCIRYSPDGSKFITVSSDKRGLIYDGKTGDKIGELSSEDSHTGSIYAVSWSADSKQVLTVSADKTAKVWDIMEDASGKVNRTLVCTGIGGVDDMLVGCLWQNDHLVTVSLGGTFNVFSASNPDKEPVSFAGHLKTVSSLTYFPQSNPRTMLSTSYDGVIIRWIQGVGYGGRLIRKNNTQIKCFVAAEEELITSGYDNMVFRIPLNGDQCGDAESVDVGGQPNALNIAVQQPEFALITTDSAIVLLHKSTVTSTTKVSYTITSSAVSPDGTEAIVGAQDGKLRIYSISGDTLTEEAVLERHRGAITSIHYSPDVSMFASADANREAVAWDRATREIKLKNMLFHTARINCLAWSPDSRLVATGSIDTCAIIYDVDKPASSRITIKGAHLGGVHGLTFADNDTLVTAGEDACVRVWKLV
modifications: Phleum Pratense
B6: NTGA 26: Phl p wild type sequence, Table 2 (protein)
chain: GVFTDKDKAAAHMKGGAKKVVISAPSKDAPMFVVGVNEDKYTSDVNIVSNASCTTNCLAPLAKIINDNFGIVEGLMTTVHSITATQKTVDGPSSKDWRGGRAASFNIIPSSTGAAKAVGKVLPELNGKLTGMSFRVPTVDVSVVDLTVRIEKAASYEDIKKAIKAASEGNLKGIMGYVEEDLVSTDFIGDSRSSIFDAKAGIALNDNFVKLVSWYDNEWGY
modifications: Phleum Pratense
B7: NTGA 29: Phl p wild type sequence, Table 2 (protein)
chain: MASEKHFKYVILGGGVAAGYAAREFAKQGVQPGELAIISKESVAPYERPALSKGYLFPQNAARLPGFHTCVGSGGEKLLPEWYTEKGIELILSTEIVKADLASKTLTSAAGATFTYETLLIATGSSTIKLTDFGVQGAEANNILYLRDINDADKLVAAMQAKKDGKAVVVGGGYIGLELSAALKLNNFDVTMVYPEPWCMPRLFTAGIAHFYEGYYASKGINIVKGTVASGFDADANGDVAVVKLKDGRVLDANIVIVGVGGRPLTGLFKGQVDEEKGGLKTDTFFETSVAGVYAIGDVASFPMKLYNEPRRVEHVDHARKSAEQAVKAIKAKESGETVAEYDYLPYFYSRSFDIAWQFYGDNVGESVLFGDNDPAAAKAKFGTYWVKDGKVVGVFLEGGSADENQAIAKVARAQPLVAANLGELGKEGLDFAAKI
modifications: Phleum Pratense
B8: NTGA 32: Phl p wild type sequence, Table 2 (protein)
chain: MAPIKIGINGFGRIGRLVARVALQCPDVELVAVNDPFITTDYMTYMFKYDTVHGQWKHHDVKVKDAKTLLFGEKEVAVFGCRNPEEIPWGAAGADYVVESTGVFTDKDKAAAHIKGGAKKVIISAPSKDAPMFVCGVNEKEYTSDITIVSNASCTTNCLAPLAKVINDRFGIVEGLMTTVHAMTATQKTVDGPSSKDWRGGRAASFNIIPSSTGAAKAVGKVLPVLNGKLTGMAFRVPTVDVSVVDLTVRLEKAATYEQIKAAIKEESEGNLKGILGYVDEDLVSTDFQGDSRSSIFDAKAGIALNDNFVKLVSWYDNEWGYSTRVVDLIRHIHATK
modifications: Phleum Pratense

Tested on: cultured PBMCs of the allergic donors
Test: ELISPOT of IL-5 or IFNg production by cultured PBMCs of TG allergic donors in response to peptide
Assay type: cell-based, human
Settings: for NTGA's containing at least one T cell epitope, Th+ (Col 2): NTGA number given = criterion met, TG allergic donors n=20; for No of PG+ & th+ peptides per NTGA / No of PP & Th+ peptides per NTGA: Table 6; for No of PG+ & th+ peptides per NTGA: PG+ peptides recognized by T cells of grass allergic donors (n=20); for No of PP & Th+ peptides per NTGA: PP peptides recognized by T cells of grass allergic donors (n=20); for # Th+: Table 7, peptides per NTGA recognized by T cells of grass allergic donors (n=20)
Excerpt: Table 1 indicates for each of the 397 PG+ peptides in which non-grass pollen species a matching peptide with either less than 3, less than 2 or zero mismatches are found. The number of TG grass allergic donors (n=20) with an in vitro T cell response to the TG peptide sequence is also shown.
A set of 93 proteins from Timothy grass (TG) pollen and the assembly of 822 peptides (15 mers) predicted to promiscuously bind HLA class II molecules shown in Table 9 and the immune reactivity in allergic donors have been reported in PCT application WO 2013/119863. […] Immune reactivity was determined by the production of IL-5 or IFNg from cultured PBMCs of the allergic donors in response to stimulation with a peptide and IL-5 and IFNg were measured by ELISPOT as described in Oseroff C et al, 2010.
In short, T cell immune reactivity was determined using PBMCs isolated from study participants and stored in liquid nitrogen until further use. For experimental testing, PBMCs were thawed and expanded in vitro with TG pollen extract (50 μg/mL) or the peptide pool ([…]). The TG extract and peptide pools had each been previously titrated to determine optimal stimulation concentrations.
Cytokine production by cultured PBMCs in response to antigen stimulation was measured by ELISPOT. Cells (1×10^5 cells/well) were plated and incubated with peptide (10 μg/mL), the peptide pool (5 μg/mL), or the TG extract (50 μg/mL). Phytohaemagglutinin (10 μg/mL) and medium alone were used as positive and negative controls, respectively. Samples were considered to produce a cytokine if 100 spot-forming cells (SFCs)/10^6 PBMCs were detected, with P .05 and a stimulation index of 2 or more. Criteria for individual peptides were the same except that a minimum of 20 SFCs were required for a sample to be counted as positive.
Table 3 lists the 397 PG+ peptides and indicates for each non-grass pollen species whether a matching peptide with either less than 3, less than 2 or zero mismatches could be detected. The immune reactivity of the TG peptide was assessed as the number of TG grass allergic donors (n=20) having in vitro T cell response against the TG peptide.

Molecule	NTGA's containing at least one T cell epitope, Th+ (Col 2)	No of PG+ & th+ peptides per NTGA	No of PP & Th+ peptides per NTGA	# Th+
B1	4	4	3	0
B2	30	1	1	0
B3	10	3	0	0
B4	11	5	1	0
B5	9	3	1	0
B6	26	1	1	0
B7	29	1	1	0
B8	32	4	4	0
